Measurements: patent US11702469B2, “Recombinant EGFL7, EGFL7 antibodies, and uses thereof” (Ohio State Innovation Foundation, priority 2017, dated 2023)

Columns and labels:
THP-1 cells = assay: Differentiation (CD11B and CD14 staining), THP-1; format: cell-based, human; details: 96-hours post anti-EGFL7 treatment
Experimental: FIG. 24A-24G. EGFL7 prevents activation of NOTCH signaling in AML cells. (FIG. 24A) Overview of experiments using DLL4-FC and IgG-FC control coated plates to induce NOTCH activation. (FIG. 24B) THP-1 cells were pre-treated with 10 μM γ-secretase inhibitor (AVA), 100 μg/ml anti-EGFL7 antibody or 0.25 μM rEGFL7 for 30 min, then transferred to IgG-Fc or DLL4-Fc coated plates. After 4 h of incubation total RNA from THP-1 cells was extracted for qRT-PCR analysis of HES1 with β-ACTIN as internal control. ^###P<0.001 DLL4-FC vs IgG-FC; ***P<0.001 DLL4+AVA, DLL4+rEGFL7, and DLL4+anti-EGFL7 vs DLL4-FC. […] THP-1 cells were treated with the indicated concentration of anti-EGFL7 (@E7) then assessed for apoptosis using (FIG. 24D) AnnexinV+ staining and FACS; *P<0.05 (FIG. 24E) Immuno-blotting for PARP1 and Casp3 cleavage. (FIG. 24F) Cell differentiation was assessed by CD11B and CD14 staining 96-hours post anti-EGFL7 treatments; *P<0.05. (FIG. 24G) To determine whether activation of NOTCH by DLL4-Fc could be accentuated by anti-EGFL7 treatment, THP-1 cells were first treated with anti-EGFL7 (100 μg/ml) and then cultured on DLL4-FC or IgG-Fc coated plates and then assessed for apoptosis using AnnexinV+ staining and FACS. *P<0.05 DLL4-Fc and anti-EGFL7; vs DLL4-FC+anti-EGFL7. […]

CD34+CB cells = assay: CFU assay, CD34+ cord blood cells; format: cell-based; details: treated in vitro, vs IgG1 control
Experimental: FIG. 12. Recombinant EGFL7 stimulation leads to expansion of primary CFUs and secondary CFUs in human hematopoietic stem and progenitor cells (HSPCs). […] The number of colonies with more than 50 cells was counted under a light microscope. Right: Cells from the first round of CFU assays were harvested, rinsed with SFEM, and pooled. 5000 cells were then mixed with methylcellulose medium in the absence or presence of 0.25 μM recombinant human EGFL7 and plated onto 2 cm dishes for 10 days. The number of colonies with more than 50 cells was counted under a light microscope. […]
[…] After 10 days of culture, colonies were scored.
To assess the toxicity of Parsatuzumab on normal hematopoiesis, wild type (C57Bl/6J) mice were treated with Parsatuzumab (n=4) and IgG1 control (n=4) with the highest dose previously tested at 50 mpk twice a week for two weeks. Parsatuzumab targets both human and mouse EGFL7 protein. After two weeks of treatment, blood, spleen and BM were harvested and full phenotypic characterization was performed to assess toxicity. […] Full immunophenotypic examination of BM populations was also performed (data not shown due to space constraints). […] To functionally test the effect of Parsatuzumab on normal HSPCs, competitive repopulation BM transplantation (BMT) assays and CFU assays were performed. […]

AML cell lines = assay: Apoptosis (AnnexinV/7AAD) in AML cell lines; format: cell-based, human; details: 50 μg/ml, forty-eight hours, vs IgG control
Experimental: FIG. 9. […] Forty-eight hours after IgG control vs. @E7 antibody treatment (50 μg/ml) of AML cell lines apoptosis was evaluated by AnnexinV/7AAD staining. * indicates P<0.05, ** indicates P<0.01.
For the evaluation of apoptosis, cells were stained with Annexin V and 7-AAD as previously described^16, 21 For the evaluation of cell proliferation, AML cell lines were incubated with BrdU, fixed, permeabilized and stained with APC-conjugated anti-BrdU antibody, according to the instructions of the manufacturer (BD Biosciences) and as previously described^16, 21 The proliferating fraction of the cells (i.e., the BrdU positive cells) was evaluated with flow cytometry (LSRII, BD Biosciences). For cell differentiation analysis, cells were stained with an anti-CD11B antibody (BD Biosciences) and analyzed by flow cytometry.

B1: Parsatuzumab: Anti-human EGFL7 therapeutic antibody (Parsatuzumab) obtained from Creative Biolabs; blocking monoclonal antibody (antibody, chains of the INN, looked up, V domains shown)
VH: EVQLVESGGGLVQPGGSLRLSCAASGYTFIDYYMNWVRQAPGKGLEWVGDINLDNSGTHYNQKFKGRFTISRDKSKNTAYLQMNSLRAEDTAVYYCAREGVYHDYDDYAMDYWGQGTLVTVSS
VL: DIQMTQSPSSLSASVGDRVTITCRTSQSLVHINAITYLHWYQQKPGKAPKLLIYRVSNRFSGVPSRFSGSGSGTDFTLTISSLQPEDFATYYCGQSTHVPLTFGQGTKVEIK
- CD11B and CD14 expression (THP-1 cells): increases were found in both these markers
- numbers and types of colonies, CB CD34+ cells (CD34+CB cells): no significant changes in the numbers or types of colonies
- apoptosis (AnnexinV/7AAD) (AML cell lines): increased apoptosis
